Values of other authors, collected in paper PMC6292179.

Target: IL-18BP (Homo sapiens) (UniProt O95998)
Sequence (O95998 31-194): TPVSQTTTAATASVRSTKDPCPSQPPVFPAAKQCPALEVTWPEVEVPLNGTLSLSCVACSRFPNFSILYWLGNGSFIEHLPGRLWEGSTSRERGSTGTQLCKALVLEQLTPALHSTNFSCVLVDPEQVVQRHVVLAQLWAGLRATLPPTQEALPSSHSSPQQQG

IL-18, sequence (Q14116 37-193): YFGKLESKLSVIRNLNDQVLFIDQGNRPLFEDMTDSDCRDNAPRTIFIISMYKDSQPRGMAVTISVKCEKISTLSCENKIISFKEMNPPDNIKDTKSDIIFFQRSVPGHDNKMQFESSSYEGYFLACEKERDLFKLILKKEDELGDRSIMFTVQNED

Question: Which Kd does the source give for IL-18 (from UniProt Q14116) here?
Answer: The Kd was 0.4 nM.
